Publication PMC9273934 (2022)

B1: Fc-E1E2 from J6 (GT2a), recombinant full-length E1E2 heterodimer (complex)
chain 1: AEVKNISTGYMVTNDCTNDSITWQLQAAVLHVPGCVPCEKVGNASQCWIPVSPNVAVQRPGALTQGLRTHIDMVVMSATLCSALYVGDLCGGVMLAAQMFIVSPQHHWFVQDCNCSIYPGTITGHRMAWDMMMNWSPTATMILAYAMRVPEVIIDIISGAHWGVMFGLAYFSMQGAWAKVVVILLLAAGVDA
chain 2: RTHTVGGSAAQTTGRLTSLFDMGPRQKIQLVNTNGSWHINRTALNCNDSLHTGFIASLFYTHSFNSSGCPERMSACRSIEAFRVGWGALQYEDNVTNPEDMRPYCWHYPPRQCGVVSAKTVCGPVYCFTPSPVVVGTTDRLGAPTYTWGENETDVFLLNSTRPPLGSWFGCTWMNSSGYTKTCGAPPCRTRADFNASTDLLCPTDCFRKHPDTTYLKCGSGPWLTPRCLIDYPYRLWHYPCTVNYTIFKIRMYVGGVEHRLTAACNFTRGDRCNLEDRDRSQLSPLLHSTTEWAILPCSYSDLPALSTGLLHLHQNIVDVQFMYGLSPALTKYIVRWEWVILLFLLLADARVCACLWMLILLGQAEA
B2: Fc-E1E2 from Con1 (GT1b), recombinant full-length E1E2 heterodimer (complex)
chain 1: YEVRNVSGVYHVTNDCSNASIVYEAADMIMHTPGCVPCVRENNSSRCWVALTPTLAARNASVPTTTIRRHVDLLVGAAALCSAMYVGDLCGSVFLVAQLFTFSPRRHETVQDCNCSIYPGHVTGHRMAWDMMMNWSPTAALVVSQLLRIPQAVVDMVAGAHWGVLAGLAYYSMVGNWAKVLIVMLLFAGVDG
chain 2: GTYVTGGTMAKNTLGITSLFSPGSSQKIQLVNTNGSWHINRTALNCNDSLNTGFLAALFYVHKFNSSGCPERMASCSPIDAFAQGWGPITYNESHSSDQRPYCWHYAPRPCGIVPAAQVCGPVYCFTPSPVVVGTTDRFGVPTYSWGENETDVLLLNNTRPPQGNWFGCTWMNSTGFTKTCGGPPCNIGGIGNKTLTCPTDCFRKHPEATYTKCGSGPWLTPRCLVHYPYRLWHYPCTVNFTIFKVRMYVGGVEHRLEAACNWTRGERCNLEDRDRSELSPLLLSTTEWQVLPCSFTTLPALSTGLIHLHQNVVDVQYLYGIGSAVVSFAIKWEYVLLLFLLLADARVCACLWMMLLIAQAEA
B3: Fc-E1E2 from S52 (GT3a), recombinant full-length E1E2 heterodimer (complex)
chain 1: LEWRNTSGLYVLTNDCSNSSIVYEADDVILHTPGCVPCVQDDNTSTCWTPVTPTVAVRYVGATTASIRSHVDLLVGAATLCSALYVGDMCGAVFLVGQAFTFRPRRHQTVQTCNCSLYPGHVSGHRMAWDMMMNWSPAVGMVVAHILRLPQTLFDILAGAHWGILAGLAYYSMQGNWAKVAIVMIMFSGVDA
chain 2: ETYVTGGSVAHSARGLTSLFSMGAKQKLQLVNTNGSWHINSTALNCNESINTGFIAGLFYYHKFNSTGCPQRLSSCKPIISFRQGWGPLTDANITGPSDDRPYCWHYAPRPCSVVPASSVCGPVYCFTPSPVVVGTTDIKGKPTYNWGENETDVFLLESLRPPSGRWFGCAWMNSTGFLKTCGAPPCNIYGGEGDPENETDLFCPTDCFRKHPEATYSRCGAGPWLTPRCMVDYPYRLWHYPCTVNFTLFKVRMFVGGFEHRFTAACNWTRGERCNIEDRDRSEQHPLLHSTTELAILPCSFTPMPALSTGLIHLHQNIVDVQYLYGVGSDMVGWALKWEFVILVFLLLADARVCVALWLMLMVSQAEA
B4: Fc-E1E2 from HK6a (GT6a), recombinant full-length E1E2 heterodimer (complex)
chain 1: LTYGNSSGLYHLTNDCPNSSIVLEADAMILHLPGCLPCVRVNNNQSICWHAVSPTLAIPNASTPATGFRRHVDLLAGAAVVCSSLYIGDLCGSLFLAGQLFTFQPRRHWTVQDCNCSIYTGHVTGHRMAWDMMMNWSPTTTLVLSSILRVPEICASVISGGHWGILLAVAYFGMAGNWLKVLAVLFLFAGVE
chain 2: ATTTIGHQVGRTTGGLASLFSIGPRQNLQLINTTGSWHINRTALNCNDSLQTGFITSLFYAKNVNSSGCPERMAACKPLADFRQGWGQITYKVNISGPSDDRPYCWHYAPRPCDVVSARTVCGPVYCFTPSPVVVGTTDKLGIPTYNWGENETDVFMLESLRPPTGGWFGCTWMNSTGFTKTCGAPPCQIVPGDYNSSANELLCPTDCFRKHPEATYQRCGSGPWITPRCLVDYPYRLWHYPCTVNFTLHKVRMFVGGIEHRFDAACNWTRGERCDLHDRDRIEMSPLLFSTTQLAILPCSFSTMPALSTGLIHLHQNIVDVQYLYGVSSSVTSWVVKWEYIVLVFLVLADARICTCLWLMLLITNVEA

Target: T1, recombinant CD81 large extracellular loop
T1 chain: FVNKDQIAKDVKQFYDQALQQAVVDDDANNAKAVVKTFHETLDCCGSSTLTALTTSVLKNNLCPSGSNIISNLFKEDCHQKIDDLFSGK
Test: SPR

Going from B1 to B2, the koff rises from 0.00104 s⁻¹ to 0.00277 s⁻¹ (2.7-fold).

First: B3
Second: B4
The koff of the first is 4.7-fold lower: 0.000465 s⁻¹ for the first, 0.0022 s⁻¹ for the second.

target: recombinant CD81 large extracellular loop; test: SPR; BiaCore T200, CM5 chip, room temperature; CD81-LEL immobilised at about 150 RU; Fc-E1E2 flowed at 0-250 ug/ml; HBS-EP pH 7.4, 150 mM NaCl; 1:1 steady state binding model

“Fc-E1E2 from Con1 (GT1b), recombinant full-length E1E2 heterodimer (from UniProt Q9WMX2 192-383; Q9WMX2 384-746) (complex)” and “Fc-E1E2 from H77 (GT1a), recombinant full-length E1E2 heterodimer (complex)” are within 1.5-fold of each other in Kd: 327 nM for the first, 382 nM for the second.

Compared with “Fc-E1E2 from HK6a (GT6a), recombinant full-length E1E2 heterodimer (complex)”, “Fc-E1E2 from J6 (GT2a), recombinant full-length E1E2 heterodimer (complex)” is 3.2-fold lower in Kd: 775 nM for the first, 243 nM for the second. The second binds more tightly here.

With “Fc-E1E2 from S52 (GT3a), recombinant full-length E1E2 heterodimer (complex)” the Kd was 71 nM.
